The numbers were not newly measured in article PMC4250281, which cites them from elsewhere.

The target in the data set is 14-3-3 zeta (Homo sapiens) (UniProt P63104).
UniProt P63104, sequence (P63104 whole entry): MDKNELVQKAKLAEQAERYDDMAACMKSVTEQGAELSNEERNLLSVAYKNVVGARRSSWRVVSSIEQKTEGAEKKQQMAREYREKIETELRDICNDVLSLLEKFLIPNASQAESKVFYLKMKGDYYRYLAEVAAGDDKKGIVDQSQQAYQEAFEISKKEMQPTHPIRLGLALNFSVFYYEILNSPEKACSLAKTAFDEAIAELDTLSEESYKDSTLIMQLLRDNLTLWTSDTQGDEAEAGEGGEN

In the case of Raf-1, the Kd is 122 nM.

The Kd is the equilibrium constant for the complex coming apart.
